T1: MPDZ_5, O75970
T1 sequence (O75970 695-796, limits assumed, looked up): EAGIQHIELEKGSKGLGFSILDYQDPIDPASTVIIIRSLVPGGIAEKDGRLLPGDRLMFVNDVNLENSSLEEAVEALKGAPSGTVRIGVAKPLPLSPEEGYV

T2: MPDZ_10, O75970
T2 sequence (O75970 1624-1722, limits assumed, looked up): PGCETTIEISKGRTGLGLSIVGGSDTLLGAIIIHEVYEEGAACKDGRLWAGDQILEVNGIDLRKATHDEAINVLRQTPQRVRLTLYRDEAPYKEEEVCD

T3: LRRC7, Q96NW7
T3 sequence (Q96NW7 1440-1537, limits assumed, looked up): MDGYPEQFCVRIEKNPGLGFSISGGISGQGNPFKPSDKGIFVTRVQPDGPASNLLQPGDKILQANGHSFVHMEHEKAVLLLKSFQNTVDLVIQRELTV

T4: APBA3_1, O96018
T4 sequence (O96018 389-490, limits assumed, looked up): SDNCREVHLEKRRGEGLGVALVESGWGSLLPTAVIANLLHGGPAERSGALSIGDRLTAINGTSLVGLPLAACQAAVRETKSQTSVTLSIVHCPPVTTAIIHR

T5: SNTB1, Q13884
T5 sequence (Q13884 107-205, limits assumed, looked up): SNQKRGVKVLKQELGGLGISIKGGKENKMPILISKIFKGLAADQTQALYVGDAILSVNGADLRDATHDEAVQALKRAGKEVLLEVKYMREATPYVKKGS

T6: DLG3_3, Q92796
T6 sequence (Q92796 374-475, limits assumed, looked up): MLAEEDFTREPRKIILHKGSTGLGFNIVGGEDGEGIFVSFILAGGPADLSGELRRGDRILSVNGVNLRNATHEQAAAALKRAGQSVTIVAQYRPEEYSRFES

T7: MPP7, Q5T2T1
T7 sequence (Q5T2T1 134-230, limits assumed, looked up): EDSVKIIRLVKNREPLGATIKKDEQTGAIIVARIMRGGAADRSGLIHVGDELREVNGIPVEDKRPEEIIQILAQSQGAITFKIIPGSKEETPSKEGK

T8: PDZRN3_1, Q9UPQ7
T8 sequence (Q9UPQ7 244-349, limits assumed, looked up): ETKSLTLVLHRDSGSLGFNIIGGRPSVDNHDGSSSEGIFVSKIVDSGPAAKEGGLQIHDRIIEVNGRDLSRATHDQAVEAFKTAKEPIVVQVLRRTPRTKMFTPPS

T9: DVL3, Q92997
T9 sequence (Q92997 244-331, limits assumed, looked up): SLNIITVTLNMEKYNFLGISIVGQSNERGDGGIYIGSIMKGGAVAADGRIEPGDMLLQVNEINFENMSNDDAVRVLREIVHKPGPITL

T10: RHPN1, Q8TCX5
T10 sequence (Q8TCX5 508-602, limits assumed, looked up): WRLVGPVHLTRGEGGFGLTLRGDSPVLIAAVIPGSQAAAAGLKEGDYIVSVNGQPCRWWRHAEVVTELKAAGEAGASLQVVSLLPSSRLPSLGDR

T11: DFNB31_1, Q9P202
T11 sequence (Q9P202 135-233, limits assumed, looked up): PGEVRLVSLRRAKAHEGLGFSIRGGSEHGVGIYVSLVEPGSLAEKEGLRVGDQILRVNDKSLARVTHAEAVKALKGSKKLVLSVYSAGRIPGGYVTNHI


Columns and labels:
Test in all cases: holdup assay
Set-up in all cases: key: below the threshold = too weak to quantify, mostly under pKd 3.1 to 4
Conditions in all cases: plain residues with an end cap or a label only (N-terminal biotin on a linker: ado-ado)
NHERF4_1, Q86UT5-2 = target: NHERF4_1, Q86UT5-2
NHERF4_1, Q86UT5-2, sequence (Q86UT5 other isoform, or with tags, fused parts or gaps): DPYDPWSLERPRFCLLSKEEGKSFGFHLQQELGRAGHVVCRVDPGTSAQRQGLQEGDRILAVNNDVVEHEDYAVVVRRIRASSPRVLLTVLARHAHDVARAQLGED

MPDZ_5, O75970 = target: T1, MPDZ_5, O75970
MPDZ_10, O75970 = target: T2, MPDZ_10, O75970
FRMPD2_1, Q68DX3 = target: FRMPD2_1, Q68DX3
FRMPD2_1, Q68DX3, sequence (Q68DX3 770-861): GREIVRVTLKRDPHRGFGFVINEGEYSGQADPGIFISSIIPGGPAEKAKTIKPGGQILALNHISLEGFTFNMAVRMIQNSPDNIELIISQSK

LRRC7, Q96NW7 = target: T3, LRRC7, Q96NW7
APBA3_1, O96018 = target: T4, APBA3_1, O96018
SCRIB_1, Q14160 = target: SCRIB_1, Q14160
SCRIB_1, Q14160, sequence (Q14160 718-814): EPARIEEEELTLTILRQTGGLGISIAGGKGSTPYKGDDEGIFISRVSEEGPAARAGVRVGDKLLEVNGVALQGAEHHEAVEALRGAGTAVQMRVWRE

NHERF4_4, Q86UT5 = target: NHERF4_4, Q86UT5
NHERF4_4, Q86UT5, sequence (Q86UT5 464-550): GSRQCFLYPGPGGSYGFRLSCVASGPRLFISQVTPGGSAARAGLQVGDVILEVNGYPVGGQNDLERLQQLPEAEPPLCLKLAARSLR

GORASP1, Q9BQQ3 = target: GORASP1, Q9BQQ3
GORASP1, Q9BQQ3, sequence (Q9BQQ3 1-208): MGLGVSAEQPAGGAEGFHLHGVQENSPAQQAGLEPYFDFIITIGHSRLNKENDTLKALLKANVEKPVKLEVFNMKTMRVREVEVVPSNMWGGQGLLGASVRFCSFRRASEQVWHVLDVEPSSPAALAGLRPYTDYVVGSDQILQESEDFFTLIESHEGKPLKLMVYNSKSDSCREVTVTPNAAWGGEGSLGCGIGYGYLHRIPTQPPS

IL16_1, Q14005 = target: IL16_1, Q14005
IL16_1, Q14005, sequence (Q14005 210-306): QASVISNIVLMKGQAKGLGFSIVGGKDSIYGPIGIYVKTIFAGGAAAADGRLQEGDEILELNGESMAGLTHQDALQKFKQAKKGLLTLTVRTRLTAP

SCRIB_3, Q14160 = target: SCRIB_3, Q14160
SCRIB_3, Q14160, sequence (Q14160 999-1103): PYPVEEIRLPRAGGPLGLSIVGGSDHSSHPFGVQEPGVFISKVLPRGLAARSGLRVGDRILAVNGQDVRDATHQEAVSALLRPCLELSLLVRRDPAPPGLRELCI

SNTB1, Q13884 = target: T5, SNTB1, Q13884
GRIP2_6, Q9C0E4 = target: GRIP2_6, Q9C0E4
GRIP2_6, Q9C0E4, sequence (Q9C0E4 648-740): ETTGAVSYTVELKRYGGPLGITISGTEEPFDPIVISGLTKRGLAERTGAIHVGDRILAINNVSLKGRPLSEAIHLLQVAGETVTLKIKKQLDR

DLG3_3, Q92796 = target: T6, DLG3_3, Q92796
Inadl_1, Q8NI35 = target: Inadl_1, Q8NI35
Inadl_1, Q8NI35, sequence (Q8NI35 113-229): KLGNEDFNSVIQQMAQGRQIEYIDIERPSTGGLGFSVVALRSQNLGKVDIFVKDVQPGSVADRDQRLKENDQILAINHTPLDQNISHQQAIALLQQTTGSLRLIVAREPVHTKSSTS

TJP1_2, Q07157 = target: TJP1_2, Q07157
TJP1_2, Q07157, sequence (Q07157 181-274): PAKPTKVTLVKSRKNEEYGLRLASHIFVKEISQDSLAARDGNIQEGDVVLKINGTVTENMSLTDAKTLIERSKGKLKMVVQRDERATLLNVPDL

Inadl_3, Q8NI35 = target: Inadl_3, Q8NI35
Inadl_3, Q8NI35, sequence (Q8NI35 359-469): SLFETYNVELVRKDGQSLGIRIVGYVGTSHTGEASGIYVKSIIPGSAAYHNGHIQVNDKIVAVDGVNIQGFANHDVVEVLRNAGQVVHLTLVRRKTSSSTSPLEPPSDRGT

Inadl_4, Q8NI35 = target: Inadl_4, Q8NI35
Inadl_4, Q8NI35, sequence (Q8NI35 547-651): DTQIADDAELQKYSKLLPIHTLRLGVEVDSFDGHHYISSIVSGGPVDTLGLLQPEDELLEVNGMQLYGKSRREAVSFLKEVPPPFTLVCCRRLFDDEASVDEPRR

MPP7, Q5T2T1 = target: T7, MPP7, Q5T2T1
DLG2_2, Q15700 = target: DLG2_2, Q15700
DLG2_2, Q15700, sequence (Q15700 189-283): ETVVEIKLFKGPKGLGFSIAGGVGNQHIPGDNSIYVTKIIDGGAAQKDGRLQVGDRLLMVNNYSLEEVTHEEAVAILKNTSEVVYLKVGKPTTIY

PDLIM1, O00151 = target: PDLIM1, O00151
PDLIM1, O00151, sequence (O00151 1-87): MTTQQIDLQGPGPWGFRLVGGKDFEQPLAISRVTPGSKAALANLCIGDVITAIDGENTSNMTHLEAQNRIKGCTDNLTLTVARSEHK

PDZRN3_1, Q9UPQ7 = target: T8, PDZRN3_1, Q9UPQ7
GORASP2, Q9H8Y8 = target: GORASP2, Q9H8Y8
DVL3, Q92997 = target: T9, DVL3, Q92997
RHPN1, Q8TCX5 = target: T10, RHPN1, Q8TCX5
DFNB31_1, Q9P202 = target: T11, DFNB31_1, Q9P202

| Binder | pKd (NHERF4_1, Q86UT5-2) | pKd (MPDZ_5, O75970) | pKd (MPDZ_10, O75970) | pKd (FRMPD2_1, Q68DX3) | pKd (LRRC7, Q96NW7) | pKd (APBA3_1, O96018) | pKd (SCRIB_1, Q14160) | pKd (NHERF4_4, Q86UT5) | pKd (GORASP1, Q9BQQ3) | pKd (IL16_1, Q14005) | pKd (SCRIB_3, Q14160) | pKd (SNTB1, Q13884) | pKd (GRIP2_6, Q9C0E4) | pKd (DLG3_3, Q92796) | pKd (Inadl_1, Q8NI35) | pKd (TJP1_2, Q07157) | pKd (Inadl_3, Q8NI35) | pKd (Inadl_4, Q8NI35) | pKd (MPP7, Q5T2T1) | pKd (DLG2_2, Q15700) | also measured |
| --- | --- | --- | --- | --- | --- | --- | --- | --- | --- | --- | --- | --- | --- | --- | --- | --- | --- | --- | --- | --- | --- |
| DDENIRTSDV [PLEKHA2, Q9HB19] | below the threshold | below the threshold | 3.85 | below the threshold | 3.72 | below the threshold | 3.75 | below the threshold | below the threshold | 3.83 | 3.99 | 5.37 | below the threshold | below the threshold | below the threshold | below the threshold | below the threshold | below the threshold | below the threshold | 4.04 | pKd (PDLIM1, O00151): below the threshold; pKd (PDZRN3_1, Q9UPQ7): below the threshold; pKd (GORASP2, Q9H8Y8): below the threshold; pKd (DVL3, Q92997): below the threshold; pKd (RHPN1, Q8TCX5): 3.92; pKd (DFNB31_1, Q9P202): below the threshold |
| HLRARKSEWV [GJD4, Q96KN9] | 4.06 | 4.06 | below the threshold | 4.24 | 3.81 | below the threshold | below the threshold | below the threshold | 5 | below the threshold | below the threshold | below the threshold | below the threshold | below the threshold | below the threshold | 4.97 | below the threshold | below the threshold | below the threshold | 3.62 | pKd (PDLIM1, O00151): below the threshold; pKd (PDZRN3_1, Q9UPQ7): below the threshold; pKd (GORASP2, Q9H8Y8): 5.57; pKd (DVL3, Q92997): 3.79; pKd (RHPN1, Q8TCX5): below the threshold; pKd (DFNB31_1, Q9P202): below the threshold |
| AKPSRISTVV [IQSEC2, Q5JU85] | 3.48 | below the threshold | 3.57 | 3.53 | below the threshold | below the threshold | 3.58 | below the threshold | 4.11 | below the threshold | 3.74 | 4.16 | below the threshold | 4.18 | below the threshold | below the threshold | 3.73 | below the threshold | below the threshold | 5.21 | pKd (PDLIM1, O00151): below the threshold; pKd (PDZRN3_1, Q9UPQ7): below the threshold; pKd (GORASP2, Q9H8Y8): 4.47; pKd (DVL3, Q92997): below the threshold; pKd (RHPN1, Q8TCX5): below the threshold; pKd (DFNB31_1, Q9P202): below the threshold |
| PEYLGLDVPV [ERBB2, P04626] | below the threshold | below the threshold | below the threshold | 3.53 | below the threshold | below the threshold | below the threshold | below the threshold | below the threshold | 3.65 | below the threshold | 3.92 | below the threshold | below the threshold | below the threshold | 3.65 | 3.48 | below the threshold | below the threshold | below the threshold | pKd (PDLIM1, O00151): below the threshold; pKd (PDZRN3_1, Q9UPQ7): 3.48; pKd (GORASP2, Q9H8Y8): below the threshold; pKd (DVL3, Q92997): below the threshold; pKd (RHPN1, Q8TCX5): below the threshold; pKd (DFNB31_1, Q9P202): below the threshold |
| TSQESEDTYL [TBC1D10A, Q9BXI6] | 3.97 | below the threshold | below the threshold | below the threshold | 3.85 | below the threshold | 3.99 | below the threshold | below the threshold | below the threshold | 4.16 | 3.79 | below the threshold | below the threshold | below the threshold | below the threshold | below the threshold | below the threshold | below the threshold | below the threshold | pKd (PDLIM1, O00151): below the threshold; pKd (PDZRN3_1, Q9UPQ7): 3.48; pKd (GORASP2, Q9H8Y8): below the threshold; pKd (DVL3, Q92997): below the threshold; pKd (RHPN1, Q8TCX5): 4.45; pKd (DFNB31_1, Q9P202): 3.62 |
| DDPSTAETVL [ABCA7, Q8IZY2] | 3.86 | below the threshold | below the threshold | below the threshold | below the threshold | below the threshold | 4.37 | below the threshold | below the threshold | below the threshold | 4.73 | 4.87 | below the threshold | below the threshold | below the threshold | below the threshold | 3.73 | below the threshold | below the threshold | below the threshold | pKd (PDLIM1, O00151): below the threshold; pKd (PDZRN3_1, Q9UPQ7): 4.09; pKd (GORASP2, Q9H8Y8): below the threshold; pKd (DVL3, Q92997): below the threshold; pKd (RHPN1, Q8TCX5): 4.92; pKd (DFNB31_1, Q9P202): below the threshold |

Source: PMC9482650, “Quantitative fragmentomics allow affinity mapping of interactomes” (Nature Communications, 2022)
